# Strand notation (5' to 3'): a small letter for the sugar, then the base; units joined by * are phosphorothioate-linked, units joined directly phosphodiester-linked; [ ] holds rarer units or linkages, { } end groups; capitals alone tell only the bases. m = 2'-O-methyl; r = 2'-OH (RNA)
# B1: G000490: TTR sgRNA modified sequence, Human, SEQ ID NO: 97; guide sequence of CR003366 (nucleic acid)
# guide: mA*mA*mA*rUrArGrArCrArCrCrArArArUrCrUrUrArCrGrUrUrUrUrArGrAmGmCmUmAmGmAmAmAmUmAmGmCrArArGrUrUrArArArArUrArArGrGrCrUrArGrUrCrCrGrUrUrArUrCrAmAmCmUmUmGmAmAmAmAmAmGmUmGmGmCmAmCmCmGmAmGmUmCmGmGmUmGmCmU*mU*mU*mU
# B2: G000567: TTR sgRNA modified sequence, Human, SEQ ID NO: 109; guide sequence of CR003352 (nucleic acid)
# guide: mG*mA*mA*rArGrGrCrUrGrCrUrGrArUrGrArCrArCrCrGrUrUrUrUrArGrAmGmCmUmAmGmAmAmAmUmAmGmCrArArGrUrUrArArArArUrArArGrGrCrUrArGrUrCrCrGrUrUrArUrCrAmAmCmUmUmGmAmAmAmAmAmGmUmGmGmCmAmCmCmGmAmGmUmCmGmGmUmGmCmU*mU*mU*mU
# B3: G000572: TTR sgRNA modified sequence, Human, SEQ ID NO: 113; guide sequence of CR003385 (nucleic acid)
# guide: mC*mC*mC*rCrUrArCrUrCrCrUrArUrUrCrCrArCrCrArGrUrUrUrUrArGrAmGmCmUmAmGmAmAmAmUmAmGmCrArArGrUrUrArArArArUrArArGrGrCrUrArGrUrCrCrGrUrUrArUrCrAmAmCmUmUmGmAmAmAmAmAmGmUmGmGmCmAmCmCmGmAmGmUmCmGmGmUmGmCmU*mU*mU*mU
# B4: G000484: TTR sgRNA modified sequence, Human, SEQ ID NO: 91; guide sequence of CR003367 (nucleic acid)
# guide: mA*mG*mA*rCrArCrCrArArArUrCrUrUrArCrUrGrGrArGrUrUrUrUrArGrAmGmCmUmAmGmAmAmAmUmAmGmCrArArGrUrUrArArArArUrArArGrGrCrUrArGrUrCrCrGrUrUrArUrCrAmAmCmUmUmGmAmAmAmAmAmGmUmGmGmCmAmCmCmGmAmGmUmCmGmGmUmGmCmU*mU*mU*mU
# B5: G000568: TTR sgRNA modified sequence, Human, SEQ ID NO: 110; guide sequence of CR003391 (nucleic acid)
# guide: mG*mG*mC*rUrGrUrCrGrUrCrArCrCrArArUrCrCrCrArGrUrUrUrUrArGrAmGmCmUmAmGmAmAmAmUmAmGmCrArArGrUrUrArArArArUrArArGrGrCrUrArGrUrCrCrGrUrUrArUrCrAmAmCmUmUmGmAmAmAmAmAmGmUmGmGmCmAmCmCmGmAmGmUmCmGmGmUmGmCmU*mU*mU*mU
# B6: G000481: TTR sgRNA modified sequence, Human, SEQ ID NO: 88; guide sequence of CR003345 (nucleic acid)
# guide: UCUAGAACUUUGACCAUCAGGUUUUAGAGCUAGAAAUAGCAAGUUAAAAUAAGGCUAGUCCGUUAUCAACUUGAAAAAGUGGCACCGAGUCGGUGCUUUU
# modifications: sugars from the 5' end m3 r25 m12 r28 m32, backbone not given here; further chemistry not fully specified
# B7: G000489: TTR sgRNA modified sequence, Human, SEQ ID NO: 96; guide sequence of CR003344 (nucleic acid)
# guide: mU*mU*mU*rGrArCrCrArUrCrArGrArGrGrArCrArCrUrGrUrUrUrUrArGrAmGmCmUmAmGmAmAmAmUmAmGmCrArArGrUrUrArArArArUrArArGrGrCrUrArGrUrCrCrGrUrUrArUrCrAmAmCmUmUmGmAmAmAmAmAmGmUmGmGmCmAmCmCmGmAmGmUmCmGmGmUmGmCmU*mU*mU*mU
# B8: G000500: TTR sgRNA modified sequence, Human, SEQ ID NO: 107; guide sequence of CR003337 (nucleic acid)
# guide: mC*mC*mA*rGrUrCrCrArGrCrArArGrGrCrArGrArGrGrGrUrUrUrUrArGrAmGmCmUmAmGmAmAmAmUmAmGmCrArArGrUrUrArArArArUrArArGrGrCrUrArGrUrCrCrGrUrUrArUrCrAmAmCmUmUmGmAmAmAmAmAmGmUmGmGmCmAmCmCmGmAmGmUmCmGmGmUmGmCmU*mU*mU*mU
# B9: G000488: TTR sgRNA modified sequence, Human, SEQ ID NO: 95; guide sequence of CR003346 (nucleic acid)
# guide: mA*mA*mA*rGrUrUrCrUrArGrArUrGrCrUrGrUrCrCrGrGrUrUrUrUrArGrAmGmCmUmAmGmAmAmAmUmAmGmCrArArGrUrUrArArArArUrArArGrGrCrUrArGrUrCrCrGrUrUrArUrCrAmAmCmUmUmGmAmAmAmAmAmGmUmGmGmCmAmCmCmGmAmGmUmCmGmGmUmGmCmU*mU*mU*mU
# B10: G000493: TTR sgRNA modified sequence, Human, SEQ ID NO: 100; guide sequence of CR003368 (nucleic acid)
# guide: mA*mA*mG*rUrGrCrCrUrUrCrCrArGrUrArArGrArUrUrGrUrUrUrUrArGrAmGmCmUmAmGmAmAmAmUmAmGmCrArArGrUrUrArArArArUrArArGrGrCrUrArGrUrCrCrGrUrUrArUrCrAmAmCmUmUmGmAmAmAmAmAmGmUmGmGmCmAmCmCmGmAmGmUmCmGmGmUmGmCmU*mU*mU*mU
# Test system: TTR mRNA
# Experiment: TTR mRNA knockdown (quantitative PCR) in primary human hepatocytes treated with LNPs
# Type: cell-based
# Details: PHH; LNP dose 300 ng mRNA cargo; gRNA:mRNA 1:2; 96 h; biological triplicates; vs untreated control
# Description: In one experiment, PHH were cultured and treated with LNPs comprising Cas9 mRNA (SEQ ID NO:1) and a gRNA of interest (See FIG. 29, Table 36), as described in Example 4. The LNPs were prepared using the cross-flow procedure described above and purified and concentrated using PD-10 columns and Amicon centrifugal filter units, respectively. The LNPs were formulated with an N:P ratio of 6.0 and contained Lipid A, Cholesterol, DSPC, and PEG2k-DMG in a 50:38:9:2 molar ratio, respectively. The LNPs comprised a gRNA:mRNA ratio of 1:2, and the cells were treated at a dose of 300 ng (with respect to the amount of mRNA cargo delivered).
# (§1) Ninety-six (96) hours following LNP treatment (with biological triplicates for each condition), mRNA was purified from PHH cells using the Dynabeads mRNA DIRECT Kit (ThermoFisher Scientific) according to the manufacturer's protocol. Reverse Transcription (RT) was performed with Maxima reverse transcriptase (ThermoFisher Scientific) and a poly-dT primer. The resulting cDNA was purified with Ampure XP Beads (Agencourt). For Quantitative PCR, 2% of the purified cDNA was amplified with Taqman Fast Advanced Mastermix and 3 Taqman probe sets, TTR (Assay ID: Hs00174914_m1), GAPDH (Assay ID: Hs02786624_g1), and PPIB (Assay ID: Hs00168719_m1). The assays were run on the QuantStudio 7 Flex Real Time PCR System according to the manufacturer's instructions (Life Technologies). Relative expression of TTR mRNA was calculated by normalizing to the endogenous controls (GAPDH and PPIB) individually, and then averaged.
# The groups in FIG. 29 and Table 36 are identified by the gRNA ID used in each LNP preparation.
# In a separate experiment, TTR mRNA knockdown was evaluated following treatment with LNPs comprising G000480, G000486, and G000502. The LNPs were formulated and PHH were cultured and treated with the LNPs, each as described in the experiment above in this Example with the exception that the cells were treated at a dose of 100 ng (with respect to the amount of mRNA cargo delivered).
# as §1, with “(single treatment” for “(with biological triplicates”, “the High Capacity cDNA Reverse Transcription Kit” for “Maxima reverse transcriptase”, “according to the manufacturer's instructions.” for “and a poly-dT primer. The resulting cDNA was purified with Ampure XP Beads (Agencourt).”, “the” for “the purified”
# The groups in FIG. 30 and Table 37 are identified by the gRNA ID used in each LNP preparation.
row,Molecule,Avg % Knockdown (TTR mRNA) [%]
1,B1,78.34
2,B2,90.89
3,B3,55.92
4,B4,75.22
5,B5,53.44
6,B6,91.39
7,B7,91.85
8,B8,92.90
9,B9,92.77
10,B10,87.53

# Test system: potential off-target genomic sites
# Experiment: Off-target analysis by oligo insertion based assay in primary human hepatocytes (sgRNAs)
# Type: cell-based
# Details: 100 ng Cas9 mRNA, 25 nM sgRNA, 12.5 nM donor oligo, 48 h
row,Molecule,# Sites in PHH (off-target integration sites detected)
1,B1,0
2,B2,0
3,B3,2
4,B4,0
5,B5,11
6,B6,0
7,B7,2
8,B8,12
9,B9,0
10,B10,1

# — patent US20230035659A1, “Compositions and Methods for TTR Gene Editing and Treating ATTR Amyloidosis Comprising a Corticosteroid or Use Thereof” (Intellia Therapeutics, Inc., priority 2019, published 2023)
